Biological target: ACE2-ECD-sFc fusion protein (Homo sapiens)
Assay: ELISA, plate coated with ACE2 ECD-sFc

Substance	EC50
S1-RBD-His protein (from UniProt P0DTC2 331-530) (ligand)	0.4 µg/mL
S1-RBD-His-HRP (from UniProt P0DTC2 331-530) (ligand)	0.19 µg/mL

From patent US20230109393A1
